Target: T1, {Pra}KTFKC plasmin-cleavable peptide, as Cholesterol-KTFKC-PEG2000 (not fully specified)
T1 chain: KTFKC

B1: Human plasmin (protein)
chain: KVYLSECKTGNGKNYRGTMSKTKNGITCQKWSSTSPHRPRFSPATHPSEGLEENYCRNPDNDPQGPWCYTTDPEKRYDYCDILECEEECMHCSGENYDGKISKTMSGLECQAWDSQSPHAHGYIPSKFPNKNLKKNYCRNPDRELRPWCFTTDPNKRWELCDIPRCTTPPPSSGPTYQCLKGTGENYRGNVAVTVSGHTCQHWSAQTPHTHNRTPENFPCKNLDENYCRNPDGKRAPWCHTTNSQVRWEYCKIPSCDSSPVSTEQLAPTAPPELTPVVQDCYHGDGQSYRGTSSTTTTGKKCQSWSSMTPHRHQKTPENYPNAGLTMNYCRNPDADKGPWCFTTDPSVRWEYCNLKKCSGTEASVVAPPPVVLLPDVETPSEEDCMFGNGKGYRGKRATTVTGTPCQDWAAQEPHRHSIFTPETNPRAGLEKNYCRNPDGDVGGPWCYTTNPRKLYDYCDVPQCAAPSFDCGKPQVEPKKCPGRVVGGCVAHPHSWPWQVSLRTRFGMHFCGGTLISPEWVLTAAHCLEKSPRPSSYKVILGAHQEVNLEPHVQEIEVSRLFLEPTRKDIALLKLSSPAVITDKVIPACLPSPNYVVADRTECFITGWGETQGTFGAGLLKEAQLPVIENKVCNRYEFLNGRVQSTELCAGHLAGGTDSCQGDSGGPLVCFEKDKYILQGVTSWGLGCARPNKPGVYVRVSRFVTWIEGVMRNN
- Annexin V staining of immobilized PPNs after plasmin incubation (phosphatidylserine exposure after removal of the PEG cloak): PPNs incubated with ≥50 nM human plasmin had increased Annexin V staining
